Test results as given in article PMC11273609, “Single-Molecule Detection of the Encounter and Productive Electron Transfer Complexes of a Photosynthetic Reaction Center” (Journal of the American Chemical Society, 2024).

Key:
Conditions in all cases: both partners purified
[1] = biological target: T1, wild-type reaction center-light harvesting complex 1 (RC-LH1), His10-tag on the RC H-subunit (Rhodobacter sphaeroides, UniProt P0C0Y7 1-260; P0C0Y8 1-282; P0C0Y9 1-308; P0C0X9 1-55; P0C0Y1 7-49; P13402 1-82); experiment: single-molecule force spectroscopy (AFM, PF-QNM); cyt c2-His6 on the AFM probe, His10-tagged RC-LH1 on the SiOx substrate; oxidized RC-LH1, oxidized cyt c2 (probe treated with 0.8 mM potassium ferricyanide); 10 mM HEPES pH 7.4, 10 mM NaCl
[2] = biological target: T2, D(M184)K mutant RC-LH1 complex, His10-tag on the RC H-subunit (Rhodobacter sphaeroides, UniProt P0C0Y7 1-260; P0C0Y8 1-282; P0C0Y9 1-308; P0C0X9 1-55; P0C0Y1 7-49; P13402 1-82, D(M184)K); experiment: as above
[3] = biological target: T3, N(M188)D mutant RC-LH1 complex, His10-tag on the RC H-subunit (Rhodobacter sphaeroides, UniProt P0C0Y7 1-260; P0C0Y8 1-282; P0C0Y9 1-308; P0C0X9 1-55; P0C0Y1 7-49; P13402 1-82, N(M188)D); experiment: as above
[4] = biological target: T4, Q(L264)E mutant RC-LH1 complex, His10-tag on the RC H-subunit (Rhodobacter sphaeroides, UniProt P0C0Y7 1-260; P0C0Y8 1-282; P0C0Y9 1-308; P0C0X9 1-55; P0C0Y1 7-49; P13402 1-82, Q(L264)E); experiment: as above
[5] = biological target: T1, wild-type reaction center-light …; experiment: single-molecule force spectroscopy (AFM, PF-QNM); cyt c2-His6 on the AFM probe via Ni2+-NTA and a PEG linker, His10-tagged RC-LH1 or RC-only complexes on a Ni2+-NTA SiOx substrate; oxidized RC, reduced cyt c2; 10 mM HEPES pH 7.4, 10 mM NaCl
[6] = biological target: T2, D(M184)K mutant RC-LH1 complex, …; experiment: as above
[7] = biological target: T3, N(M188)D mutant RC-LH1 complex, …; experiment: as above
[8] = biological target: T4, Q(L264)E mutant RC-LH1 complex, …; experiment: as above

cumulative interaction probability [2]: 20%
cumulative interaction probability [3]: 37%
cumulative interaction probability [4]: 36%
cumulative interaction probability [6]: 24%
cumulative interaction probability [7]: 40%
cumulative interaction probability [8]: 39%
B1: cytochrome c2 (cyt c2), His6-tagged (natural protein)
chain: QEGDPEAGAKAFNQCQTCHVIVDDSGTTIAGRNAKTGPNLYGVVGRTAGTQADFKGYGEGMKEAGAKGLAWDEEHFVQYVQDPTKFLKEYTGDAKAKGKMTFKLKKEADAHNIWAYLQQVAVRP
notes: cytochrome c2 of Rhodobacter sphaeroides (gene cycA); the His6-tag follows the C-terminal residue Pro124; Carries a heme cofactor; used pre-reduced (dithionite and phenazine methosulfate) or pre-oxidized (ferricyanide), the redox state is told in the assay; also called reduced cyt c2; oxidized cyt c2; not shown: His6, C-terminal, kept
cumulative interaction probability [1]: 32%
cumulative interaction probability [5]: ~34%
